Results from patent US20080015137A1.

What follows are substances tested against Karyopherin beta2 (Kapβ2), full length, wild type (human) (UniProt Q92973) (assay: ITC; MBP-M9NLS(257-305) mutant titrated into full length Kapβ2).
Sequence of Karyopherin beta2 (Kapβ2), full length, wild type (human) (Q92973 9-898 limits assumed): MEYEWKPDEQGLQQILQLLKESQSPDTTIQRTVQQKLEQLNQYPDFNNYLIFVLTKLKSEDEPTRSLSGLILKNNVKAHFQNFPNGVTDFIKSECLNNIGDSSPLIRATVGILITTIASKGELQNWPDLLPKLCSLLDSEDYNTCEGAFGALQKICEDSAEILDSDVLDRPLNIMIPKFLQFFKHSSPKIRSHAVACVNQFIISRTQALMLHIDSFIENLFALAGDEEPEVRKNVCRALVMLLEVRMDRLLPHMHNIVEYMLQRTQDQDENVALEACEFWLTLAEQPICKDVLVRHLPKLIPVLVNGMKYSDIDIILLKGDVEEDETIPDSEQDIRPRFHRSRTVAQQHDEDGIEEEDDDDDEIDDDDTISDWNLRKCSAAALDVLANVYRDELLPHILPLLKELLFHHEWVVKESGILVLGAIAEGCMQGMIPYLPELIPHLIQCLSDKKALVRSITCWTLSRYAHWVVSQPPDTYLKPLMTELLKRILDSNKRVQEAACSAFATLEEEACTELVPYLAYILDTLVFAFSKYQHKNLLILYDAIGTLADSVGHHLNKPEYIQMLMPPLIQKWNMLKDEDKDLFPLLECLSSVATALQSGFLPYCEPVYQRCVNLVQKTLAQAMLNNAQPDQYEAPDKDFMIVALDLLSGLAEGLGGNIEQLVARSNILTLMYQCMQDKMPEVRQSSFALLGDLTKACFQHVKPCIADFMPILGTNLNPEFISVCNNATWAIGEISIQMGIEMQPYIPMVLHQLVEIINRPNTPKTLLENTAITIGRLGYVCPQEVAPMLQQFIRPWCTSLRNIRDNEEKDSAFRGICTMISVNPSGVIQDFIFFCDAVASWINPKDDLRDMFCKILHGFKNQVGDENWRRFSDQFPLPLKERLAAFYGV

| Substance | Kd [nM] |
| --- | --- |
| MBP-M9NLS(257-305) G274A (from UniProt P09651 257-305) | 746 |
| MBP-M9NLS(257-305) G274A/P288A/Y289A (from UniProt P09651 257-305) | 5900 |
| MBP-M9NLS(257-305) M276A (from UniProt P09651 257-305) | 83 |
| MBP-M9NLS(257-305) P275A (from UniProt P09651 257-305) | 74 |
| MBP-M9NLS(257-305) P288A/Y289A (from UniProt P09651 257-305) | 136 |
| MBP-M9NLS(257-305) R284A/P288A/Y289A (from UniProt P09651 257-305) | 461 |
| MBP-M9NLS(257-305) Y289A (from UniProt P09651 257-305) | 133 |

The remaining substances from weak to strong by Kd, led by results:

| Kd [nM] | Substance |
| --- | --- |
| 158 | MBP-M9NLS(257-305) P288A (from UniProt P09651 257-305) |
| 92 | MBP-M9NLS(257-305) R284A (from UniProt P09651 257-305) |
| 61 | MBP-M9NLS(257-305) F273A (from UniProt P09651 257-305) |
| 56 | MBP-M9NLS(257-305) F281A (from UniProt P09651 257-305) |
